Target: T1, HLA-A*24 (human)
T1 construct: MHC monomer made peptide-receptive by UV cleavage of a UV-sensitive ligand; also called peptide-receptive MHC class I monomer
Assay: UV peptide-exchange ELISA; ++++ = yield >75%
Source text: (§1) Candidate peptides for T cell based therapies according to the present invention were further tested for their MHC binding capacity (affinity). The individual peptide-MHC complexes were produced by UV-ligand exchange, where a UV-sensitive peptide is cleaved upon UV-irradiation, and exchanged with the peptide of interest as analyzed. Only peptide candidates that can effectively bind and stabilize the peptide-receptive MHC molecules prevent dissociation of the MHC complexes. To determine the yield of the exchange reaction, an ELISA was performed based on the detection of the light chain (β2m) of stabilized MHC complexes. The assay was performed as generally described in Rodenko et al. (Rodenko et al., 2006).
(§2) 96 well MAXISorp plates (NUNC) were coated over night with 2 ug/ml streptavidin in PBS at room temperature, washed 4× and blocked for 1 h at 37° C. in 2% BSA containing blocking buffer. […] Peptide-MHC monomers of the UV-exchange reaction were diluted 100-fold in blocking buffer. Samples were incubated for 1 h at 37° C., washed four times, incubated with 2 ug/ml HRP conjugated anti-β2m for 1h at 37° C., washed again and detected with TMB solution that is stopped with […]. Absorption was measured at 450 nm.

Peptide exchange yield, > 75%:
LYQEILAQL [LYQEILAQL (SEQ ID NO: 62)]
VYSDLHAFYY [VYSDLHAFYY (SEQ ID NO: 375)]
NYAIFDEGHML [NYAIFDEGHML (SEQ ID NO: 64)]
VYNDHSIYVW [VYNDHSIYVW (SEQ ID NO: 386)]
KYVKVFDKF [KYVKVFDKF (SEQ ID NO: 384)]
VYVGAVNRI [VYVGAVNRI (SEQ ID NO: 377)]
IMPEKFEFW [IMPEKFEFW (SEQ ID NO: 69)]
SYMVLAPVF [SYMVLAPVF (SEQ ID NO: 71)]
TWFPKTPMLF [TWFPKTPMLF (SEQ ID NO: 78)]
TYSKKHFRI [TYSKKHFRI (SEQ ID NO: 381)]
RYLADLPTL [RYLADLPTL (SEQ ID NO: 79)]
KFLGPAEHLTF [KFLGPAEHLTF (SEQ ID NO: 378)]
TYCQNIKEF [TYCQNIKEF (SEQ ID NO: 83)]
PYTNYTFDF [PYTNYTFDF (SEQ ID NO: 70)]
KYVKDFHKF [KYVKDFHKF (SEQ ID NO: 376)]
VYPASKMFPFI [VYPASKMFPFI (SEQ ID NO: 65)]
IYFRDSSFL [IYFRDSSFL (SEQ ID NO: 66)]
RFLPSPVVI [RFLPSPVVI (SEQ ID NO: 82)]
RYEGILYTI [RYEGILYTI (SEQ ID NO: 72)]
VYDQYFITL [VYDQYFITL (SEQ ID NO: 74)]
YYSPLRDLL [YYSPLRDLL (SEQ ID NO: 80)]
MYINEVERL [MYINEVERL (SEQ ID NO: 385)]
VMPSDSFFF [VMPSDSFFF (SEQ ID NO: 63)]
RYPGKFYRV [RYPGKFYRV (SEQ ID NO: 67)]
NYIYSISVF [NYIYSISVF (SEQ ID NO: 75)]
LYPEGLRLL [LYPEGLRLL (SEQ ID NO: 81)]
IYQQIIQTY [IYQQIIQTY (SEQ ID NO: 68)]

Target: T2, HLA-B*07 (human)
T2 construct: MHC monomer made peptide-receptive by UV cleavage of a UV-sensitive ligand; also called peptide-receptive MHC class I monomer
Assay: UV peptide-exchange ELISA; ++++ = yield >75%
Source text: as §1, §2

Peptide exchange yield, > 75%:
SPRDFLSGL [SPRDFLSGL (SEQ ID NO: 250)]
MPLLENLYL [MPLLENLYL (SEQ ID NO: 255)]
KPYQGNPTF [KPYQGNPTF (SEQ ID NO: 233)]
YPKDIYSSF [YPKDIYSSF (SEQ ID NO: 223)]
RPIENRILIL [RPIENRILIL (SEQ ID NO: 243)]
IPNWARQDL [IPNWARQDL (SEQ ID NO: 248)]
GPQPWHAAL [GPQPWHAAL (SEQ ID NO: 224)]
RAKNAGVTI [RAKNAGVTI (SEQ ID NO: 234)]
SPRQPPRLV [SPRQPPRLV (SEQ ID NO: 265)]
NPFPHLITL [NPFPHLITL (SEQ ID NO: 254)]
SARLATDAL [SARLATDAL (SEQ ID NO: 241)]
VPRSSGQTV [VPRSSGQTV (SEQ ID NO: 251)]
SPRVPSIEL [SPRVPSIEL (SEQ ID NO: 256)]
SPRWLPVSL [SPRWLPVSL (SEQ ID NO: 242)]
LPRIPFADV [LPRIPFADV (SEQ ID NO: 257)]
VPDVAQFVL [VPDVAQFVL (SEQ ID NO: 221)]
SPRMSGLLSQT [SPRMSGLLSQT (SEQ ID NO: 226)]
LPFDGPGGIL [LPFDGPGGIL (SEQ ID NO: 225)]
RVRGGEDGDRAL [RVRGGEDGDRAL (SEQ ID NO: 236)]
LPRGPLASL [LPRGPLASL (SEQ ID NO: 258)]
TPLPAVIVL [TPLPAVIVL (SEQ ID NO: 246)]
FPYVRDFVM [FPYVRDFVM (SEQ ID NO: 244)]
SPSVSQLSVL [SPSVSQLSVL (SEQ ID NO: 220)]
YVPSASLFML [YVPSASLFML (SEQ ID NO: 239)]
YPRGNHWAVGHL [YPRGNHWAVGHL (SEQ ID NO: 228)]
KPGPPWAAF [KPGPPWAAF (SEQ ID NO: 238)]
RPRALRDLQL [RPRALRDLQL (SEQ ID NO: 231)]
HPAPYGDLL [HPAPYGDLL (SEQ ID NO: 263)]
SPREVTTVL [SPREVTTVL (SEQ ID NO: 240)]
YPRGNHWAVGH [YPRGNHWAVGH (SEQ ID NO: 227)]
VPSSRILQL [VPSSRILQL (SEQ ID NO: 249)]
MPLKHYLLL [MPLKHYLLL (SEQ ID NO: 235)]
RPRALRDLQLL [RPRALRDLQLL (SEQ ID NO: 232)]
SPDIRNTTV [SPDIRNTTV (SEQ ID NO: 252)]
RPPAAGLRGISL [RPPAAGLRGISL (SEQ ID NO: 259)]

From patent US11352401
